These results are taken from patent US20200407723, “APTAMER BASED AFFINITY CAPTURE METHODS FOR THE SELECTIVE ENRICHMENT OF HUMAN IMMUNOGLOBULIN FC DOMAINS” (Waters Technologies Corporation, published 2020).

Series [1] deals with NISTmAb humanized IgG1 (Fc domain) (UniProt P01857-1 P01857-1:99-330). Description: pulldown; from rat plasma, 12.5 ug aptamer, about 85% of 100 ug recovered, purity 10.6% to 72.4%; bound mAb to plasma protein ratio near 7:3; retained in 5 mM CaCl2 Tris. The note with it: chain copies: 2; label: 5'-biotin. How it is done:
280 nm, Em. 370 nm) and re-calculated according to the chromatographic purity assessment. […] After purification, about 85% of the spiked NIST mAb was recovered with purity increasing from 10.6% to 72.4%.
The small portion of impurity in the purified NIST mAb eluate was determined to be the non-specific binding of rat plasma endogenous proteins to the aptamer. The competition in binding between NIST mAb and plasma protein was investigated by loading 20 μL of rat plasma containing 50 μg of NIST mAb onto an increasing amount of immobilized aptamer (5 μg, 12.5 μg, 25 μg). The result of this experiment is summarized in FIG. 8D-E. From which, it is possible to observe that the binding ratio of NIST mAb to plasma protein is close to 7:3 (from UV measurement) for the current experimental approach.
To test out this optional protocol step, 20 μL of plasma and 25 μg of NIST mAb were diluted with binding buffer to 200 μL then loaded onto 40 μL of streptavidin resin wherein 5 μg of aptamer was non-covalently immobilized. […] Herein, the second washing and elution fractions were collected and analyzed by LC-UV analysis. […]

Series [2] deals with bovine serum albumin (Bos taurus, UniProt P02769 P02769:25-607). Description: pulldown; negative control; negligible non-specific binding in Tris with Mg2+; high non-specific binding with Zn2+, especially without NaCl. The note with it: tags: Sigma-Aldrich; label: 5'-biotin. On the procedure: A positive pressure manifold (commercially available from Waters Technologies Corporation, Milford, Mass.) was utilized to drive flow through the filter plate. The amount of aptamer immobilized was determined by abosorbance at 260 nm using a DS-11 spectrophotometer (commercially available from DeNovix Inc., Wilmington, Del.). This non-covalently immobilized aptamer affinity resin was used to perform the affinity capture of 100 μg human IgG (IgG from human serum, commercially available from Sigma-Aldrich (now MilliporeSigma), St. Louis, Mo.) contained within 200 μL of several different binding buffers (specified below). After 1 hour of mixing, the resin was washed with two repeated 200 μL volumes to remove any unbound protein. Combined hIgG flow-through and washing fractions were saved to determine the amount of hIgG breakthrough. […] The eluate was saved for hIgG recovery measurements using a fluorescence plate reader (Ex. 280 nm, Em. 370 nm; Gemini™ XPS plate reader, commercially available from Molecular Devices, San Jose, Calif.).
The presence of divalent cations in the binding buffer has the potential to facilitate the activation of the aptamer affinity motif, yet it could also instigate non-specific binding. […] After binding and washing steps, captured proteins were eluted with elution buffer and protein recovery in each eluate was measured using a fluorescence plate reader.

Sequence of bovine serum albumin (P02769 25-607, one chain of several): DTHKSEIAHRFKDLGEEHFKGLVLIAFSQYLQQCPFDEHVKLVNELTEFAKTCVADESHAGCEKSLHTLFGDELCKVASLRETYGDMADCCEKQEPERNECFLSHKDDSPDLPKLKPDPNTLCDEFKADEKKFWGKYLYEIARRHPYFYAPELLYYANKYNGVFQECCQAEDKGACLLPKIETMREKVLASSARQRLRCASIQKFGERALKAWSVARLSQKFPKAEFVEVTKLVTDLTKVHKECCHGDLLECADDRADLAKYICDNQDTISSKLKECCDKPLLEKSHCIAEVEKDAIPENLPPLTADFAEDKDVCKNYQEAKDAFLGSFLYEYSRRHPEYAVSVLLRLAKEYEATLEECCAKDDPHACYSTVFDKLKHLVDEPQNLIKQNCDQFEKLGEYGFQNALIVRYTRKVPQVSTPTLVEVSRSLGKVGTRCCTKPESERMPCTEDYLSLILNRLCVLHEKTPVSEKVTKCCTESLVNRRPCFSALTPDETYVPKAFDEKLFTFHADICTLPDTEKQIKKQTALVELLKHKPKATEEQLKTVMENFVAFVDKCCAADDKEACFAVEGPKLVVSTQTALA

B1: anti-human Fc 23-nt aptamer SEQ ID NO 1 (mixed)
RNA: GGAGGUGCUCCGAAAGGAACUCC
modifications: 2'-F U at 6, 9, 21; 2'-F C at 20; ribonucleotides at A3, G4, G5, G7, G16, G17; all other positions deoxyribonucleotides
Consider B1, for which the binding result in series [1] is on record as “binds”; in series [2], “no binding”.
